Laboratory results reported in US20200157226A1 (DRAGONFLY THERAPEUTICS, published 2020).

T1: 5T4 expressed on human cancer cell lines (human, UniProt Q13641 32-420)
T1 construct: the assays used endogenous 5T4 on BxPC3, H146, H1975, HCT116, MCF7 and N87 cells; also called tumor-associated 5T4 antigen; human trophoblast glycoprotein 5T4
T1 sequence: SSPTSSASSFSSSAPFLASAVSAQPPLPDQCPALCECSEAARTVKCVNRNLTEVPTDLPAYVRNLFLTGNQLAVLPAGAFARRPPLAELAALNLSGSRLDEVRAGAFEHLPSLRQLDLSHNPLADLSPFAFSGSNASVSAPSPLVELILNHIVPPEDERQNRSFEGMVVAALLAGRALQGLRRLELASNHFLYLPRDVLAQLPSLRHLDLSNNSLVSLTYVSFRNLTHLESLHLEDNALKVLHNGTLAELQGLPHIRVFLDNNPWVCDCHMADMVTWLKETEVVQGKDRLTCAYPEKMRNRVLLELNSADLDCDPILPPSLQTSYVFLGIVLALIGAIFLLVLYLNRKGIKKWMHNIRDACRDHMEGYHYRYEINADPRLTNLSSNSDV

T2: human NKG2D expressed on cells (primary human NK cells); EL4 mouse lymphoma cell lines engineered to express … (human, UniProt P26718 1-216)
T2 construct: whole, on cells; also called NKG2D expressed on EL4 cells; NKG2D on primary human NK cells
T2 sequence (looked up): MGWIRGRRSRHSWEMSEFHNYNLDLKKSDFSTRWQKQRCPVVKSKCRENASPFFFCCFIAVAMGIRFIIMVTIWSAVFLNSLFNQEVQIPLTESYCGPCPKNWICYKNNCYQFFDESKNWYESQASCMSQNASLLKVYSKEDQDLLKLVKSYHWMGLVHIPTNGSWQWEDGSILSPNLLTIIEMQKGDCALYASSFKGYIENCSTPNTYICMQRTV

B1: anti-5T4 monoclonal antibody 5T4A (antibody, V domains shown)
VH: EVQLVESGGGLVQPGGSLRLSCAASGFTFSNYWMNWVRQAPGKGLEWVGEIRLKSDKYATYYAESVKGRFTISRDDSKNSLYLQMNNLKTEDTGVYYCARRRGYYGSAYGMDYWGQGTLVTVSS
VL: DIQMTQSPSSLSASVGDRVTITCKASQDINSYLSWFQQKPGKAPKILIYRANRLVDGVPSRFSGSGSGKDFTFTISSLQPEDIATYYCLQYDFLPLTFGGGTKVEIK
notes: detected with anti-human IgG secondary antibody; also called 5T4 monoclonal antibody (mAb)
B2: anti-5T4 monoclonal antibody 5T4R (antibody, V domains shown)
VH: EVHLLESGGGLVHPGGSLRLSCAASGFTFRSDAMHWVRQAPGKGLEWVSGVSGSGGSPYYADSVKGRFTISRDDSKTTLYLQMNSLRAEDTAVYYCATGGSIAGSYYYYPMDVWGQGTTVTVSS
VL: DIQMTQSPSSLSASVGDRVTITCQASQDISNYLNWYQQKPGKAPKLLIYAASTLQIGVPSRFSGSGSGTDFTFTISSLQPEDFATYYCQQANSFPLTFGGGTKVEIK
notes: detected with anti-human IgG secondary antibody; also called parental anti-5T4R monoclonal antibody; 5T4 monoclonal antibody (mAb)

Assays:
[1] = biological target: T1, 5T4 expressed on human cancer cell lines; assay: flow cytometry on BxPC3 cells
Description: (§1) Human cancer cell lines (BxPC3, H146, H1975, HCT116, MCF7 and N87) expressing the tumor-associated 5T4 antigen were used to assay the binding of 5T4-targeting TriNKETs to the antigen. In separate experiments, the TriNKETs or the parental anti-5T4 monoclonal antibodies were incubated with the each of the cell lines, and the binding of the TriNKETs or anti-5T4 monoclonal antibodies to the cells was detected using fluorophore-conjugated anti-human IgG secondary antibodies. Flow cytometry was used to analyze the binding of the TriNKETs or anti-5T4 monoclonal antibodies to the cells, and fold-over-background (FOB) was calculated by normalizing the mean fluorescence intensity (MFI) to human recombinant IgG1 staining control.

[2] = biological target: T2, human NKG2D expressed on cells (primary …); assay: flow cytometry on primary human NK cells
Description: Primary human NK cells and EL4 mouse lymphoma cell lines engineered to express human NKG2D were used to test binding affinity of trispecific binding proteins (TriNKETs) to NKG2D. Each of the TriNKETs tested contains an NKG2D-binding domain, a tumor-associated antigen binding domain (e.g., a 5T4-binding domain), and an Fc domain that binds to CD16 as shown in FIG. 1. TriNKETs were diluted to 20 μg/mL, and then diluted serially. The binding of the TriNKETs or the parental anti-5T4 monoclonal antibodies to NKG2D were detected using fluorophore-conjugated anti-human IgG secondary antibodies. Cells were analyzed by flow cytometry, and fold-over-background (FOB) was calculated by normalizing the mean fluorescence intensity (MFI) to human recombinant IgG1 staining control.

[3] = biological target: T1, 5T4 expressed on human cancer cell lines; assay: flow cytometry on 5T4-expressing human cancer cell lines
Description: as §1

Binder	binding result [1]	binding result [2]	binding result [3]
B1	binds	no binding	–
B2	–	no binding	binds
